Assays:
Test in all cases: SPR
[1] = target: Influenza NA protein (recombinant, bought) (Influenza A virus (strain not stated)) (UniProt P03470)
[2] = target: Influenza A H1N1 (A/Puerto Rico/8/34/Mount Sinai) Matrix protein 1 / M1 Protein (His Tag) (Influenza A virus A/Puerto Rico/8/34/Mount Sinai (H1N1)) (UniProt P03485)
[3] = target: Influenza A virus A/WSN/1933 (H1N1) particles, purified (Influenza A virus A/WSN/1933 (H1N1)) (UniProt P03470)

UniProt P03485, sequence (P03485 whole entry): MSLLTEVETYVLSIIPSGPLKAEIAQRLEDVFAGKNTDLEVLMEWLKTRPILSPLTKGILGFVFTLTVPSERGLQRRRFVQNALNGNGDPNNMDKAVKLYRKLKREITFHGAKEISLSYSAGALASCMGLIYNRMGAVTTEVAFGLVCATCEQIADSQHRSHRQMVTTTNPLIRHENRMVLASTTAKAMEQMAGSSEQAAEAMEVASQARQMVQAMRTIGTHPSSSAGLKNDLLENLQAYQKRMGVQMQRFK

How did the Kd [1] turn out when “TfR1 protein (recombinant, bought from Sino Biological) (from UniProt P02786 1-760) (receptor)” was run?
Its Kd is 42.4 nM.

And the Kd [2]?
Its Kd is 75.9 nM.

What about the Kd [3] of the same substance?
Its Kd is 34.6 nM.
